Tested on: T1, O=[N+]([O-])c1ccc(O[C@@H]2OC[C@@H](O[C@@H]3OC[C@@H](O)[C@H](O)[C@H]3O)[C@H](O)[C@H]2O)cc1
T1 construct: mature form Leu20-Ser216 (197 residues), signal peptide removed, N-terminal His6 tag (pRham N-His), E. coli 10G, synthetic codon-optimised gene, monomer, 22,340 Da
Experiment: purified protein
Type: biochemical, Rhizopus arrhizus
Conditions: 20 mM sodium acetate, pH 5.0, 37 °C, free enzyme without OsXIP

RXyn2 (Rhizopus arrhizus), sequence (chain, as listed by the source): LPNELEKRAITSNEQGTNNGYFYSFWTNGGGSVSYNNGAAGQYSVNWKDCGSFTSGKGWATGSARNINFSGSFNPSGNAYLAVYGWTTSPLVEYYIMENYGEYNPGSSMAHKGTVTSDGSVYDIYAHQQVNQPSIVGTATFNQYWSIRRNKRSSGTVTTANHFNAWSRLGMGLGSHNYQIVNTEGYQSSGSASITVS

RXyn2 (Rhizopus arrhizus)
Km: 5.05 ± 0.29 mM
